Experiments:
[1] = biological target: T1, E2C (six-finger Sp1C framework protein) (synthetic construct); experiment: EMSA; ±30%; 3 mismatches to E2C target
[2] = biological target: T2, E3 (six-finger Sp1C framework protein) (synthetic construct); experiment: EMSA; ±10%; ZBA buffer with ZnCl2, room temperature
[3] = biological target: T1, E2C (six-finger Sp1C framework protein); experiment: EMSA; ±15%; ZBA buffer with ZnCl2, room temperature
[4] = biological target: T2, E3 (six-finger Sp1C framework protein); experiment: EMSA; ±15%; about 30-fold lower affinity than E3 target

T2 sequence (chain, as listed by the source): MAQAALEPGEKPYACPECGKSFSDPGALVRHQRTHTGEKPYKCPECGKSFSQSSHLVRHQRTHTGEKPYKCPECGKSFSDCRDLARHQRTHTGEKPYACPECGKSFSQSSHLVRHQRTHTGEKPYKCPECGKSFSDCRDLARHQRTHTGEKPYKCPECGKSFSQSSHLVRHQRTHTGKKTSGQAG
T1 sequence (chain, as listed by the source): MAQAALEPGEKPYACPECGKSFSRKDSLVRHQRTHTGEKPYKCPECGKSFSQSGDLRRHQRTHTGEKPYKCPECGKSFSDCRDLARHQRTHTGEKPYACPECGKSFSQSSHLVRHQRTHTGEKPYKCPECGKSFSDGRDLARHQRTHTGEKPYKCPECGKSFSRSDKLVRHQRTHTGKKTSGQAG

B1: E3 target site (erbB-3 5'-UTR) (dsDNA)
DNA 1: GGAGCCGGAGCCGGAGTC
DNA 2: GACTCCGGCTCCGGCTCC
- Kd [1]: 11 nM
- Kd [2]: 0.35 nM

B2: E2C target site (erbB-2 5'-UTR) (dsDNA)
DNA 1: GGGGCCGGAGCCGCAGTG
DNA 2: CACTGCGGCTCCGGCCCC
- Kd [3]: 0.75 nM
- Kd [4]: 10 nM
